PMC6408514

Key:
Assay in all cases: SEC; SEC-HPLC, Superose 6, PBS pH 7.4, samples at 2 mg/mL; 24-mer assembly
[1] = target: human H-chain ferritin mutant C (Q14A/D15A/R22A/F81A/Q83A) (human)
[2] = target: human H-chain ferritin mutant A (Q14A/D15A/R22A) (human)
[3] = target: human H-chain ferritin mutant B (F81A/Q83A) (human)
[4] = target: human L-chain ferritin mutant D (S5T/T14Q/S22R/L81F/D116E/A119K/A123D following H-Ft numbering) (human)

## human H-chain ferritin mutant C (Q14A/D15A/R22A/F81A/Q83A) (natural protein)
[1]
  stoichiometry N: 24

## human H-chain ferritin mutant A (Q14A/D15A/R22A) (natural protein)
[2]
  stoichiometry N: 24

## human H-chain ferritin mutant B (F81A/Q83A) (natural protein)
[3]
  stoichiometry N: 24

## human L-chain ferritin mutant D (S5T/T14Q/S22R/L81F/D116E/A119K/A123D following H-Ft numbering) (natural protein)
[4]
  stoichiometry N: 24
